Results reported in publication PMC2928003.
Several values for one entry are separate records, joined by “and”; a condition that tells them apart may be missing. Equal values may be shown once.

Key:
[1] = molecular target: nonmuscle myosin IIB (rat (endogenous in PC12 and rat brain)) (UniProt Q9JLT0); assay: co-IP
[2] = molecular target: nonmuscle myosin IIB (mouse (endogenous in NIH3T3)) (UniProt Q61879); assay: co-IP
the DH–PH domains = assay: pull-down
[3] = molecular target: Tiam1 DH–PH domain (aa 1048–1406), His-tagged (UniProt Q60610); assay: SPR
Chain of Tiam1 DH–PH domain (aa 1048–1406), His-tagged (Q60610 1048-1406): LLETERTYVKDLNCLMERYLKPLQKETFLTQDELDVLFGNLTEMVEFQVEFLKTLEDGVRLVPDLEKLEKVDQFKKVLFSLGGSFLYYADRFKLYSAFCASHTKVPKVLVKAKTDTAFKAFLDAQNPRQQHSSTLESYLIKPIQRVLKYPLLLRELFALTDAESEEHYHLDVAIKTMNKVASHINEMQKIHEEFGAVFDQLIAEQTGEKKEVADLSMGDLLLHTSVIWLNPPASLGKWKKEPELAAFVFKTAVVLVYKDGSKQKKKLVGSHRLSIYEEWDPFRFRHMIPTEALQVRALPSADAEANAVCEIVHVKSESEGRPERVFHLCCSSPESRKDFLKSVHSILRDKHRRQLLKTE

[4] = molecular target: Vav1 DH–PH domain (aa 195–508), His-tagged (UniProt P15498); assay: SPR
Chain of Vav1 DH–PH domain (aa 195–508), His-tagged (P15498 195-508): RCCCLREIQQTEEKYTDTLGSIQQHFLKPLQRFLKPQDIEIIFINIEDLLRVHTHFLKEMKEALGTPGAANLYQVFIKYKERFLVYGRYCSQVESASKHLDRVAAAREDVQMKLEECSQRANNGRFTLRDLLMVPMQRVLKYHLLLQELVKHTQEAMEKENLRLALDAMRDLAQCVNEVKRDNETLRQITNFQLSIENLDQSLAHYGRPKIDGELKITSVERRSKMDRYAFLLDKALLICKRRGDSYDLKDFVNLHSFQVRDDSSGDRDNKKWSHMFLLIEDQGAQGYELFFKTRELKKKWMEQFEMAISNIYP

[5] = molecular target: βPIX DH–PH domain (aa 100–400), His-tagged (UniProt O55043); assay: SPR
Chain of βPIX DH–PH domain (aa 100–400), His-tagged (O55043 100-400): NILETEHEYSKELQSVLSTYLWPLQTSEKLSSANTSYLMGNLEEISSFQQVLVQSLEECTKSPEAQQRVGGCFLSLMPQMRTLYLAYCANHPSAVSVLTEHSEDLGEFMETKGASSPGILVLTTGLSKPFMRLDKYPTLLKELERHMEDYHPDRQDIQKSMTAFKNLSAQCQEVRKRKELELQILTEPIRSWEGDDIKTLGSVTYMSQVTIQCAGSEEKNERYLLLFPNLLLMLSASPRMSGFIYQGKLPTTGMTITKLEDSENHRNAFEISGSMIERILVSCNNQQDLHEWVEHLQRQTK

[6] = molecular target: nonmuscle myosin IIA (mouse (endogenous in NIH3T3)) (UniProt Q8VDD5); assay: co-IP
Chain of nonmuscle myosin IIA (mouse (endogenous in NIH3T3)) (Q8VDD5 whole entry): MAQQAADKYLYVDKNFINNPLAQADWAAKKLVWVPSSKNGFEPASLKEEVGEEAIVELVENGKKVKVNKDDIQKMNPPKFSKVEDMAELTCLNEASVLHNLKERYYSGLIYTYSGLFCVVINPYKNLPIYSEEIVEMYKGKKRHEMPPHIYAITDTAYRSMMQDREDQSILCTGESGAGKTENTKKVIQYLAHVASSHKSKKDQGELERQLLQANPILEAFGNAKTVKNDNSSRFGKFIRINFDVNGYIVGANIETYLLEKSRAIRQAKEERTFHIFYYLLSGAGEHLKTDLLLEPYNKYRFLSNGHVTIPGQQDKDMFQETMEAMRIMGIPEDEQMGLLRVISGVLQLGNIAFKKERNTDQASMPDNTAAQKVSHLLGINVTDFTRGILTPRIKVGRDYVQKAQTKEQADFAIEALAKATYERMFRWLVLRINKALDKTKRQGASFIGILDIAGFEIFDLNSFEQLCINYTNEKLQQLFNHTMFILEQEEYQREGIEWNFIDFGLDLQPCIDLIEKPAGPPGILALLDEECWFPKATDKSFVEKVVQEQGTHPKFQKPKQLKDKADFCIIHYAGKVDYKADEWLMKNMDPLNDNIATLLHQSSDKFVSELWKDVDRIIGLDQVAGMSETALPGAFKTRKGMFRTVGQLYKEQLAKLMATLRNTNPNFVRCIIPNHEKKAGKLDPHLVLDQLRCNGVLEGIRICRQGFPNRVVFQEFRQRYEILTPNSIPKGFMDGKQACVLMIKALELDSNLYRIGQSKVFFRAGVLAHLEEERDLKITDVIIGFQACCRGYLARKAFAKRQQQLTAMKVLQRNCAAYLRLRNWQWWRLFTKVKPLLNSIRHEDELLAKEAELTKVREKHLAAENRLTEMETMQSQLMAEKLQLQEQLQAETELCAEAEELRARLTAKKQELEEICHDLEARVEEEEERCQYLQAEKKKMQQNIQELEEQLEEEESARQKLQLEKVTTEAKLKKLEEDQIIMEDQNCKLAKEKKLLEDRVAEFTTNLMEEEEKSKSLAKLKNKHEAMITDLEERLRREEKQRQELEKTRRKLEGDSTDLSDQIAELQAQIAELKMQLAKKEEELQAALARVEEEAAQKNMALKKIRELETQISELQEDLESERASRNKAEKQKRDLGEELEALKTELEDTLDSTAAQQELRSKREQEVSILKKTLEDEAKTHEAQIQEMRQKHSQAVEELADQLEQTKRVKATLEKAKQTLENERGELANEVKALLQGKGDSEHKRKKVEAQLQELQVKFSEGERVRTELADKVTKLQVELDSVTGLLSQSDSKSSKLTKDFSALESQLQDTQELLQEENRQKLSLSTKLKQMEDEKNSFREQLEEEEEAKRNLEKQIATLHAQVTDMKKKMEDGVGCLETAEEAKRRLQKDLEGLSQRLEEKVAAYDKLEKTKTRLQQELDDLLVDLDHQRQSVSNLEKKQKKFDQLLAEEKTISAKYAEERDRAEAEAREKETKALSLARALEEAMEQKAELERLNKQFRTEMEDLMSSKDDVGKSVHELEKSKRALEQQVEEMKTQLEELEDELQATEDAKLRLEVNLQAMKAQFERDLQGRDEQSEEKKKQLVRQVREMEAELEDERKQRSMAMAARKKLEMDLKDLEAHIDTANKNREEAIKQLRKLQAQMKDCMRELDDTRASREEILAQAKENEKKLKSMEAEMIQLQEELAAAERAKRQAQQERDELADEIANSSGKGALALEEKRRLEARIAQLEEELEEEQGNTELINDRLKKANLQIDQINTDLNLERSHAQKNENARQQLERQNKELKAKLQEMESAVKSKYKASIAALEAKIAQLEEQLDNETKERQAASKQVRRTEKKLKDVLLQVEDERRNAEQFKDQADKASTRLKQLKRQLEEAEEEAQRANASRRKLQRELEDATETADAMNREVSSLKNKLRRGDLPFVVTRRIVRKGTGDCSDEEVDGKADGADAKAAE

Chain of nonmuscle myosin IIB (rat (endogenous in PC12 and rat brain)) (Q9JLT0 whole entry): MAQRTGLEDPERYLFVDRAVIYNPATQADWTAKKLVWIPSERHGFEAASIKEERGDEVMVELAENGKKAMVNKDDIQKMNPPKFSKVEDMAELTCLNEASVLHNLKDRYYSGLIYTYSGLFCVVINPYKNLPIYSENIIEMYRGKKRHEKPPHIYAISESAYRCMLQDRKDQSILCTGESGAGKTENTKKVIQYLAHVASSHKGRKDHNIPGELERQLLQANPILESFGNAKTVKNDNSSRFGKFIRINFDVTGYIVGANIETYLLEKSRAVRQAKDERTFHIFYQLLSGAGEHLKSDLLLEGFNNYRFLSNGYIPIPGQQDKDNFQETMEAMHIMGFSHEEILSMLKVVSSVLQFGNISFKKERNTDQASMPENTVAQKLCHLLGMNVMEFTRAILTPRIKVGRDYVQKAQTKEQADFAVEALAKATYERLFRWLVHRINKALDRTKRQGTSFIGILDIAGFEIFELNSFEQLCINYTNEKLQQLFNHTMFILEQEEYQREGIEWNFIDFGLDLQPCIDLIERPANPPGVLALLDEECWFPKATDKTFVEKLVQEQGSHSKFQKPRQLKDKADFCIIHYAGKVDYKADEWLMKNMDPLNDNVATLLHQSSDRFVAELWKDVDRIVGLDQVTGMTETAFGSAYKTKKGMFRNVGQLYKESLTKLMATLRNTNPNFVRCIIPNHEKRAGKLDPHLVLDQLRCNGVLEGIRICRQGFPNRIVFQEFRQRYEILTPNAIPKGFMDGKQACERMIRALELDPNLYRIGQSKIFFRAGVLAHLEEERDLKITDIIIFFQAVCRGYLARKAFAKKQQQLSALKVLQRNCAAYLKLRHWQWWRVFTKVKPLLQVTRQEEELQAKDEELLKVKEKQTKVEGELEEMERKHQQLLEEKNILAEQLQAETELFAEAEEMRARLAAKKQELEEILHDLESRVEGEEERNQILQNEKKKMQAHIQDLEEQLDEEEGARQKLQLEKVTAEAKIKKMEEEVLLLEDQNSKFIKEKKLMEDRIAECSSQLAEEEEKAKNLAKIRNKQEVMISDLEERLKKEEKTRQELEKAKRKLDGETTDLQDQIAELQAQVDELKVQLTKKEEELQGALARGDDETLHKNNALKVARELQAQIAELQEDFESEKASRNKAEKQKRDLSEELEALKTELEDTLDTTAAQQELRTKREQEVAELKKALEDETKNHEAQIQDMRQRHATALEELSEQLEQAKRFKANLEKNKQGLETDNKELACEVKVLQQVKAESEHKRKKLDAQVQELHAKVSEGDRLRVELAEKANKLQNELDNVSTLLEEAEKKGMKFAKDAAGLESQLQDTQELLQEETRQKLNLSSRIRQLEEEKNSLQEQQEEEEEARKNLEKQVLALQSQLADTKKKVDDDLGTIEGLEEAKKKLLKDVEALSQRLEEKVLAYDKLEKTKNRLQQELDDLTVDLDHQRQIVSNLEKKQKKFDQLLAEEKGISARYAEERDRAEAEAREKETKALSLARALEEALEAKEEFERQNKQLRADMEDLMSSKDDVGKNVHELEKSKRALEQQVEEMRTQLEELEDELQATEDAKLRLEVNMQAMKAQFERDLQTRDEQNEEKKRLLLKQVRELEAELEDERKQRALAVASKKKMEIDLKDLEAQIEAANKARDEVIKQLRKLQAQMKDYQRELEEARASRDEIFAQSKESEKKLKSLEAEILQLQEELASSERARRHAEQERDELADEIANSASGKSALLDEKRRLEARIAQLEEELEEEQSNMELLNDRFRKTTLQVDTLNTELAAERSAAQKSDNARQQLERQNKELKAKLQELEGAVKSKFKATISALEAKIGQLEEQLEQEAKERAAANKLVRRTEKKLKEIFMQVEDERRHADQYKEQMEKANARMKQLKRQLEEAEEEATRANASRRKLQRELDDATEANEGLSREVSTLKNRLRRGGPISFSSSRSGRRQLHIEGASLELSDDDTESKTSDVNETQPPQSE
Chain of nonmuscle myosin IIB (mouse (endogenous in NIH3T3)) (Q61879 whole entry, the tested form may be a part): as the sequence (Q9JLT0 whole entry) above, with K150M, K170E, T452A, N652T, G933E, M1304I, G1389S, E1969D counted along it

## Tiam1 (natural protein)
[1]
  percent of the GEF of the lysate found in the MIIB IP: 1.6%

## kalirin, P97924 1-2959 (natural protein)
[1]
  percent of the GEF of the lysate found in the MIIB IP: 5.6%

## FGD1 (natural protein)
[1]
  percent of the GEF of the lysate found in the MIIB IP: 8.1%

## LARG (natural protein)
[1]
  percent of the GEF of the lysate found in the MIIB IP: 1%

## Dbl (natural protein)
[2]
  percent of the GEF of the lysate found in the MIIB IP: 1.3%

## skeletal muscle myosin II (from UniProt Q28641 1-1938; P02602 1-192; P02608 1-170) (complex)
The DH–PH domains
  fold of association with F-actin over without F-actin: 2 fold and 4 fold
[3]
  Kd: 0.29 µM
[4]
  Kd: 0.39 µM
[5]
  Kd: 0.26 µM

## Trio, Q0KL02 1-3102 (natural protein)
[6]
  percent of the GEF of the lysate found in the MIIA IP: 10.7%
[2]
  percent of the GEF of the lysate found in the MIIB IP: 8.7%
